Experiment [1] concerns the target fully sulfated version of the CCR1 N-terminal peptide. Also noted: method as in PMID 30567735. The settings on record: read-out: affinity for the fully sulfated version of the CCR1 N-terminal peptide; cited from earlier work.
For the next experiment, the target named is T1, CCR1 (Homo sapiens, UniProt P32246).
T1 construct: expressed in transfected cells; host or cells: CHO-K1, CHO-pgsB618 (GAG-minus), HEK293 WT / DeltaSia / sC
T1 sequence (P32246 1-355): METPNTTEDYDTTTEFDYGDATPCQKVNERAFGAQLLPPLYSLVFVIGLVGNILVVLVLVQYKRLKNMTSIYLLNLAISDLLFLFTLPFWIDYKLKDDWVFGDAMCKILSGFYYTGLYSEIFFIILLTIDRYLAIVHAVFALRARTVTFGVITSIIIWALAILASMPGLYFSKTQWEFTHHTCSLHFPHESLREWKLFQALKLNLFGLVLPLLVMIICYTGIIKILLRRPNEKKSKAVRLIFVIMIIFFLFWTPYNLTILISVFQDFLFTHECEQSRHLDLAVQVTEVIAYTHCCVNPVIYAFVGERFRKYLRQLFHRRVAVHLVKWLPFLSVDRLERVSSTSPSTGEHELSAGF
Kind of experiment: BRET CAMYEL cAMP sensor assay of ligand-induced Gαi signaling via CCR1. The format is cell-based. The settings on record: n = 3. On the procedure:
For quantification of signaling initiated immediate downstream of receptor activation, we used the cAMP binding CAMYEL sensor to perform bioluminescence resonance energy transfer (BRET)-based assays. Shortly, in this assay increased receptor activation leads to an increase in BRET ratio. For detailed information see the Materials and Methods section.
In signaling assays testing the boosting ability of basic peptides, transfected cells were aliquoted into 96-well plates in the presence of 10 µM peptide or PBS vehicle. After R-Luc substrate addition, chemokines were added to reach final concentrations ranging from 0–100 nM (0, 0.1, 1, 10, and 100 nM) and forskolin was applied before reading emission at 475 and 525 nm.
BRET measurements of Gαi signaling and β-arrestin recruitment: Cells were seeded in 6-well plates (500,000 cells/well) and transiently transfected the following day. For BRET measurements of Gαi signaling, cells were transfected with vectors encoding the human chemokine receptors as indicated (160 ng/well) and the CAMYEL sensor (cAMP sensor, YFP-Epac-RLuc) (840 ng/well) using Lipofectamine (6 µL/well). Briefly, DNA was dissolved in 125 µL OPTI-MEM and Lipofectamine was dissolved in 125 µL OPTI-MEM. The DNA and Lipofectamine solutions were combined into a transfection mixture. The transfection mixture was added dropwise to cells incubated in OPTI-MEM (1 mL/well). Transfections were terminated after 5 h by adding 1 mL of fresh culture medium on top of the OPTI-MEM. The following day the cells were loosened from the plates in PBS with 5 mM glucose and subsequently aliquoted in white 96-well iso plates (~25,000 cells/well). When using C21TP variants and defense peptides (hBD2 and histatin), these were added to a final concentration of 10 μM/well, while an equal amount of PBS was added to control cells. The bioluminescence substrate coelenterazine was added to a final conc. of 5 µM. After 10 min, varying ligand concentrations were added. For BRET measurements of Gαi signaling, forskolin was added 5 min after the addition of the ligand, to a final conc. of 5 µM. The plates were kept in the dark at all times. A Perkin Elmer Envision machine was used for measuring the emission signals at 530 and 480 nm. The BRET signal is determined as the ratio eYFP (530 nm)/Rluc (480 nm).
BRET principle with CAMYEL: For quantification of signaling initiated immediately downstream of receptor activation, we used the cAMP binding CAMYEL sensor to perform bioluminescence resonance energy transfer (BRET) based assays. In this assay we measure changes in intracellular cAMP levels in response to receptor activation. Activation of chemokine receptors lead to a decrease in cAMP through inhibition of adenylate cyclase (AC). In the current setup we initially add forskolin that stimulates AC directly to induce an increase in intracellular cAMP, and we then measure the ability of a ligand (chemokine) to counteract the forskolin-induced increase in cAMP. The cAMP sensor (CAMYEL cAMP sensor, YFP-Epac-RLuc) carries the donor Renilla luciferase (Rluc) and the acceptor YFP. Coelenterazine is a substrate for Rluc that will emit light at around 475 nm upon enzymatic cleavage catalyzed by Rluc. When Rluc and YFP are in close proximity, the energy from the emitted light from coelenterazine can be transferred to YFP, resulting in an excitation of YFP, leading to a BRET signal around 525 nm. EPAC is a cAMP binding protein that changes conformation upon cAMP binding. During low cAMP concentrations, Rluc and YFP are near each other, and a strong BRET signal at 525 nm is obtained. When cAMP levels increase, cAMP will bind to EPAC, creating a conformational change, separating Rluc and YFP, reducing the BRET ratio, and increasing the emission from Rluc at 475 nm. Thus, by measuring the ratio between the cAMP-bound (475 nm) and the cAMP-free (525 nm) state of CAMYEL we obtain a measure of receptor activation. […]
A general note: Bioluminescence resonance energy transfer reports proximity on the nanometre scale.

A further experiment has as its system CCR2 D25A/D27A mutant. Particulars: cited from earlier work. The source says: (§1) The reliance on electrostatic interactions between basic amino acids in the chemokine and acidic regions in the receptor N-terminus for chemokine receptor binding is illustrated by a study carried out by Hemmerich et al.. To investigate the influence of charge, hydrophobicity, and aromaticity on binding of CCL2 to its cognate receptor CCR2, this group substituted all surface-exposed residues on CCL2 by alanine. […] In contr ...

The target in a further experiment is CCR2. Particulars: mean ± SD; SD; read-out: binding affinity, Kd, for the WT receptor CCR2; cited from earlier work.
From the text: as §1

Experiment [2] concerns peptide corresponding to the CCR2 receptor N-terminus. Particulars: cited from earlier work.
The target in experiment [3] is CCL2 (Homo sapiens) (UniProt P13500). Particulars: cited from earlier work.
Chain of CCL2 (Homo sapiens) (P13500 24-99): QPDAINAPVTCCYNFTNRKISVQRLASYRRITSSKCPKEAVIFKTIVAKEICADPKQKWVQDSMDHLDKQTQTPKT
The target in a further experiment is naked CCR1 N-terminus (Homo sapiens, UniProt P32246). Kind of experiment: Fluorescence polarization binding to FAM-labeled CCR1 N-terminal peptide. Particulars: FAM-labeled CCR1 N-terminal peptide. On the procedure:
(§2) Fluorescence polarization (FP) assay: The carboxyfluorescein (FAM)-labeled peptides representing the CCR1 and CCR5 N-termini functioned as the probes for quantifying the interaction between the receptor N-terminus and C21TP^81-111. The probe was diluted in FP buffer (1:3, PBS:MilliQ) and 10 µL was added to a final concentration of 250 nM per well in a black 384-well plate (Corning). The C21TP^81-111 peptide (2 mM) was diluted using a two-fold dilution series; 30 µL of the peptide was added to each well to final concentrations ranging from 12.21 nM to 100 µM. Blanks containing 10 µL probe and 30 µL FP buffer were included. The plate was spun down at 1000 rpm for 1 min and the FP signal was measured on a Flex station using SoftMax Pro software 7.0. Each experiment was conducted in triplicate. The binding curves were generated by plotting the FP signal, expressed as millipolarization units (mP), against C21TP^81-111 concentration. The dissociation constant (Kd) value was calculated using GraphPad Prism 9.
(§3) Probes: • CCR1: (5,6-FAM)-[…], • CCR5: (5,6-FAM)-ADYQVSSPIYDINYYTSEP.
On the technique in general: Fluorescence polarisation rises when a labelled molecule tumbles more slowly, as on binding a larger partner.

The subject of another experiment is naked CCR5 N-terminus. Kind of experiment: Fluorescence polarization binding to FAM-labeled CCR5 N-terminal peptide. Also noted: species or system human. On the procedure:
as §2, §3

Experiment [4] deals with CCL2 (Homo sapiens) (UniProt P13500). The settings on record: cited from earlier work. This is another data set of the same source.
The target of the next experiment is CCL5 (Homo sapiens) (UniProt P13501). Particulars: cited from earlier work.
Chain of CCL5 (Homo sapiens) (P13501 24-91): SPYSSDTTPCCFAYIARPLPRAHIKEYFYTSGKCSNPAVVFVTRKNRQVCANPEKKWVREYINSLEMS
Another experiment has as its target CCL7 (Homo sapiens) (UniProt P80098). The settings on record: cited from earlier work.
Experiment [5] addresses chemokine receptor CCR5 (untagged, wild type) (human) (UniProt P51681).
Experiment [6] concerns the target T2, chemokine receptor CCR1 (untagged, wild type) (human) (UniProt P32246).
T2 sequence: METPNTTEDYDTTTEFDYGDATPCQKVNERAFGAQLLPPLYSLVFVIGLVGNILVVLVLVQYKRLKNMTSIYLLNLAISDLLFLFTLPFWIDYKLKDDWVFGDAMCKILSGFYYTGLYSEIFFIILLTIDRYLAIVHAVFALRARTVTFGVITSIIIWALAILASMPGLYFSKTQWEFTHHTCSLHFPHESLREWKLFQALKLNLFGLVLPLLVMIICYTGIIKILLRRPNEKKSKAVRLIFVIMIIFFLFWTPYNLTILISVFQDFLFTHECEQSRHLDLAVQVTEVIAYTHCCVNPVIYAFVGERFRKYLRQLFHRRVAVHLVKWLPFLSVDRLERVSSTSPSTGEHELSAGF

Experiment [7] has as its target T3, FAM-labelled peptide corresponding to the naked (unmodified) CCR1 N-terminus (human, 5,6-carboxyfluorescein (5,6-FAM) on the N-terminus).
T3 construct: first printed residue of the probe; stretch of the N-terminus of the chemokine receptor CCR1, not sulfated, not glycosylated; also called CCR1 N-terminal peptide; CCR1 probe
T3 peptide: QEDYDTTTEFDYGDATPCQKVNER
Put plainly: fluorescence polarisation; FAM-labelled receptor N-terminal peptide as probe at 250 nM in FP buffer (1:3, PBS:MilliQ), black 384-well plate; basic peptide titrated in a two-fold series, 12.21 nM to 100 µM (told for C21TP^81-111); triplicates; Kd fitted in GraphPad Prism 9. Particulars: both partners purified.

Where [8] appears, read: CHO-K1 cells, 10 µM peptide, chemokine 0-100 nM.

Like-named read-outs stand apart in the source and are kept apart here.

Chain of chemokine receptor CCR5 (untagged, wild type) (human) (P51681 whole entry): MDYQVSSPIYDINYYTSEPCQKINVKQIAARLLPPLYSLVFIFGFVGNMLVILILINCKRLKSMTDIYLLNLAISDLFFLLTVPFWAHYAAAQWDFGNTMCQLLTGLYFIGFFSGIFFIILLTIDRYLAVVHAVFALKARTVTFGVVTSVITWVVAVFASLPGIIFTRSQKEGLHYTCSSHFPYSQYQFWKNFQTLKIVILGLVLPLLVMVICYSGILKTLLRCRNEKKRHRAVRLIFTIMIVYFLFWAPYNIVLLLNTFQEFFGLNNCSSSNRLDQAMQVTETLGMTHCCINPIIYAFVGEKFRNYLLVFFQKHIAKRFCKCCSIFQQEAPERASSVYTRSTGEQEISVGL
Chain of CCL7 (Homo sapiens) (P80098 24-99): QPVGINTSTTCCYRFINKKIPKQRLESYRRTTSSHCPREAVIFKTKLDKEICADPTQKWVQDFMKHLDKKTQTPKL

Take CCL2: human chemokine from Peprotech: the Kd in experiment [1] is 100 nM; on CCR2 D25A/D27A mutant (read-out: binding affinity, Kd, for the D25A/D27A mutant version of CCR2) it was at least 3 nM; at CCR2, 0.066 ± 0.01 nM. Further, in the experiment with CCR1 (M1-tagged CCR1, HEK293 WT cells), the “Gαi signaling response of M1-CCR1 to ligand” value is listed as “to a minor degree”. Further, the “reduction in affinity, D25A/D27A mutant versus WT CCR2” value in the experiment on CCR2 D25A/D27A mutant is “approximately 50 fold”.

As for CCL7: human chemokine from Peprotech, the Kd in experiment [1] was 100 nM. In addition, the “increase of chemokine binding by tyrosine sulfation of the CCR2 N-terminus peptide” value in experiment [2] is “up to 36 fold”. Further, the “Gαi signaling via CCR1 in DeltaSia and sC cells compared to WT cells” value with CCR1 (HEK293 DeltaSia and sC) was “persists in DeltaSia and sC to almost the same high level as observed in WT cells”.

On to CCR2 (from UniProt P41597), for which, in the experiment with CCL2 (Homo sapiens) [3], the Kd is over 3 nM.

With “histatin1: human host defense peptide, less basic than hBD2, from Caslo (DSHEKRHHGYRRKFHEKHHSHREFPFYGDYGSNYLYDN) [reference compound]”, the “binding to the naked CCR1 N-terminus” value in the experiment with naked CCR1 N-terminus is recorded as “bind in a dose-dependent manner”. Also, in the experiment with CCR1 (setting [8]), the “boosting of CCL5-induced Gαi signaling via CCR1” value is listed as “also boosted the potency of both these chemokines, although to a lesser extent”; the “boosting of CCL7-induced Gαi signaling via CCR1” value is on record as “also boosted the potency of both these chemokines, although to a lesser extent”; the “effect on CCL3-induced Gαi signaling via CCR1” value is listed as “not affected”. Also, in the experiment with naked CCR5 N-terminus, the “binding to the naked CCR5 N-terminus” value is given as “neither of the HDPs bound”.

Turning to CCR1 N-terminus (from UniProt P32246), the Kd in the experiment with CCL2 (Homo sapiens) [4], with CCL5 (Homo sapiens) and with CCL7 (Homo sapiens) was 100 nM in each case.

Consider “Human CCL5 (from UniProt P13501 24-91) (ligand)”, for which, in experiment [5], the LogEC50 of CCL5-induced Gαi signaling (CAMYEL cAMP BRET) via CCR5 in CHO GAG-minus cells is -9.63 and the LogEC50 of CCL5-induced Gαi signaling (CAMYEL cAMP BRET) via CCR5 in CHO GAG-plus (WT) cells was -7.52. In addition, in experiment [6], the LogEC50 of CCL5-induced Gαi signaling (CAMYEL cAMP BRET) via CCR1 in CHO GAG-minus cells was -9.42 and the LogEC50 of CCL5-induced Gαi signaling (CAMYEL cAMP BRET) via CCR1 in CHO GAG-plus (WT) cells was -8.89.

B1: C21TP^81-111, basic C-terminal peptide of the chemokine CCL21 (last 31 aa, residues 81-111) (peptide, UniProt O00585 104-134, looked up)
peptide: RKDRGASKTGKKGKGSKGCKRTERSQTPKGP
notes: also called C-terminal peptide of CCL21; source: bought: Caslo (Lyngby, Denmark)
As to B1, the Kd in experiment [7] was about 2890 nM.

Source of the values: paper PMC11477141, “Chemokine Receptor N-Terminus Charge Dictates Reliance on Post-Translational Modifications for Effective Ligand Capture and Following Boosting by Defense Peptides” (International Journal of Molecular Sciences, 2024).
